Measurements: PMC5386860, “Variants of the Sir4 Coiled-Coil Domain Improve Binding to Sir3 for Heterochromatin Formation in Saccharomyces cerevisiae” (G3: Genes|Genomes|Genetics, 2017)

How the values were obtained:
[1] = target: T1, Sir3 (464–978) (S. cerevisiae, UniProt P06701 464-978); assay: SEC; proteins mixed in equimolar ratio, 40 min on ice; Superdex 200 Increase 3.2/300, isocratic flow, 4°; fractions on SDS-PAGE, Coomassie; settings: both partners purified
T1 construct: Purification according to Chang et al. (2003) and King et al. (2006); also called wild-type Sir3 fragment; source: E. coli BL21 Rosetta, purified (Ni-IDA, ion exchange, Superdex 200)
T1 sequence (P06701 464-978): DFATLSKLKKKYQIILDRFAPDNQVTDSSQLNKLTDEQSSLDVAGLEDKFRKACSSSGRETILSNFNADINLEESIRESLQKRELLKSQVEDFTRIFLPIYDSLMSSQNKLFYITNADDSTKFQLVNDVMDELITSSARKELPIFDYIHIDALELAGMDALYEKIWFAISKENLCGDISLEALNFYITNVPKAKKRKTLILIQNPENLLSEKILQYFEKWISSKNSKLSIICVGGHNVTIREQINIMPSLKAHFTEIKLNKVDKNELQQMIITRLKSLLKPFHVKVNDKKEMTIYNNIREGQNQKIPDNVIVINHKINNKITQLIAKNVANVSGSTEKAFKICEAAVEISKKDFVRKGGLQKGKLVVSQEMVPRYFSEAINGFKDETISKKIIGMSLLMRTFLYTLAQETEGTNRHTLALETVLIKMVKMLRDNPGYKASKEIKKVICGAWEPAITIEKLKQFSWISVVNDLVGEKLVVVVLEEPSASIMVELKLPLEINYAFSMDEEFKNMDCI

[2] = target: T2, Sir3-1067(464–978) (S. cerevisiae, UniProt P06701 464-978, K657A | K658A); assay: as above; settings: both partners purified
T2 construct: also called mutant Sir3 fragment; source: E. coli BL21 Rosetta, purified (Ni-IDA, ion exchange, Superdex 200)
T2 sequence (P06701 464-978 K657A/K658A): as the sequence (P06701 464-978) above, with K194A, K195A counted along it

binding result [1]	binding result [2]	Binder
binds		Sir4 (1217–1358) (domain or fragment, S. cerevisiae, UniProt P11978 1217-1358, looked up, source: E. coli BL21 Rosetta, purified (Ni-NTA, Superdex 75)) SNTTEILTSVDVLGTHSQTGTQQSNMYTSTQKTELEIDNKDSVTECSKDMKEDGLSFVDIVLSKAASALDEKEKQLAVANEIIRSLSDEVMRNEIRITSLQGDLTFTKKCLENARSQISEKDAKINKLMEKDFQVNKEIKPY
	binds	Sir4-ETK (1217–1358) (domain or fragment, S. cerevisiae, UniProt P11978 1217-1358, looked up, also called Sir4-E1310V, T1314S, K1325R coiled-coil fragment; source: E. coli BL21 Rosetta, purified (Ni-NTA, Superdex 75)) SNTTEILTSVDVLGTHSQTGTQQSNMYTSTQKTELEIDNKDSVTECSKDMKEDGLSFVDIVLSKAASALDEKEKQLAVANEIIRSLSDEVMRNVIRISSLQGDLTFTKRCLENARSQISEKDAKINKLMEKDFQVNKEIKPY
